In patent publication US11306156:
Values belong to the substance of their own block, whether it stands above or below them.

Legend:
[1] = molecular target: tissue factor (TF) antigen (UniProt P13726); experiment: SPR (ProteOn XPR36), Fab captured on anti-penta-His surface, TF injected as analyte, 1:1 fit; the row's other values are marked * (estimated); reference wild-type D3H44 Fab
[2] = molecular target: tissue factor (TF) antigen (UniProt P13726); experiment: SPR (ProteOn XPR36), Fab captured on anti-penta-His surface, TF injected as analyte, 1:1 fit; marked * (estimated from a Fab that differs only in the L chain tag); reference wild-type D3H44 Fab
[3] = molecular target: tissue factor (TF) antigen (UniProt P13726); experiment: SPR (ProteOn XPR36), Fab captured on anti-penta-His surface, TF injected as analyte, 1:1 fit; marked * (estimated from a Fab that differs only in the L chain tag)
[4] = molecular target: D3H44 light chain S131T_L135F_S176F_T178F (Kabat), N-terminal HA or FLAG tag; experiment: LCCA co-expression, competing light chain m34, L1:L2 DNA 1:3 normalized to 1:1, SPR tag read-out
[5] = molecular target: D3H44 light chain F116A_L135V (Kabat), N-terminal HA or FLAG tag; experiment: LCCA co-expression, competing light chain m33, L1:L2 DNA 1:9 normalized to 1:1, SPR tag read-out
[6] = molecular target: D3H44 light chain S131T_L135F_S176F_T178F (Kabat), N-terminal HA or FLAG tag; experiment: LCCA co-expression, competing light chain m34, L1:L2 DNA 1:9 normalized to 1:1, SPR tag read-out
[7] = molecular target: D3H44 light chain F116A_L135V (Kabat), N-terminal HA or FLAG tag; experiment: LCCA co-expression, competing light chain m33, L1:L2 DNA 1:3 normalized to 1:1, SPR tag read-out
[8] = molecular target: D3H44 light chain Q124R_Q160K_T178R (Kabat), N-terminal HA or FLAG tag; experiment: LCCA co-expression, competing light chain m40, L1:L2 DNA 1:3 normalized to 1:1, SPR tag read-out
[9] = molecular target: D3H44 light chain Q124E_T180E (Kabat), N-terminal HA or FLAG tag; experiment: LCCA co-expression, competing light chain m38, L1:L2 DNA 1:3 normalized to 1:1, SPR tag read-out
[10] = molecular target: D3H44 light chain Q124E_Q160E_T180E (Kabat), N-terminal HA or FLAG tag; experiment: as above
[11] = molecular target: D3H44 light chain Q124E_T178E (Kabat), N-terminal HA or FLAG tag; experiment: as above
[12] = molecular target: D3H44 light chain Q124R_Q160K_T178R (Kabat), N-terminal HA or FLAG tag; experiment: LCCA co-expression, competing light chain m37, L1:L2 DNA 1:3 normalized to 1:1, SPR tag read-out
[13] = molecular target: D3H44 light chain Q124R_Q160K_T178R (Kabat), N-terminal HA or FLAG tag; experiment: LCCA co-expression, competing light chain m39, L1:L2 DNA 1:3 normalized to 1:1, SPR tag read-out
[14] = molecular target: tissue factor (TF) (human) (UniProt P13726); experiment: SPR (ProteOn), Fab captured on anti-penta His, TF analyte, 1:1 fit; estimated from Fab differing only in L chain tag
[15] = molecular target: D3H44 Fab heavy chain L124R_D146N_Q179K (H1 of LCCA sets 9358, 9359, 9357, 9351, 9352, 9353, 9354, 9350); experiment: LCCA: H1 co-expressed with L1 and L2 (DNA 333:250:749 ng), His-tag capture on SPR chip, light chain tags detected with anti-HA/anti-FLAG; competitor L1 V133G_S176D_T178E_T180E
[16] = molecular target: D3H44 Fab heavy chain L124R_D146N_Q179K (H1 of LCCA sets 9358, 9359, 9357, 9351, 9352, 9353, 9354, 9350); experiment: LCCA: H1 co-expressed with L1 and L2 (DNA 333:250:749 ng), His-tag capture on SPR chip, light chain tags detected with anti-HA/anti-FLAG; competitor L1 Q124E_V133G_S176D_T178E_T180E
[17] = molecular target: tissue factor (TF) antigen (UniProt P13726); experiment: SPR (ProteOn XPR36), Fab captured on anti-penta-His surface, TF as analyte; reference wild-type D3H44 Fab; batch C
[18] = molecular target: tissue factor (TF) antigen (UniProt P13726); experiment: SPR (ProteOn XPR36), Fab captured on anti-penta-His surface, TF as analyte, 1:1 fit; estimated value from a Fab differing only in the L chain tag (HA or FLAG)
[19] = molecular target: tissue factor (TF) antigen (UniProt P13726); experiment: SPR (ProteOn XPR36), Fab captured on anti-penta-His surface, TF as analyte; reference wild-type D3H44 Fab; estimated value from a Fab differing only in the L chain tag
[20] = molecular target: tissue factor (TF) antigen (UniProt P13726); experiment: SPR (ProteOn XPR36), Fab captured on anti-penta-His surface, TF as analyte, 1:1 fit; batch C (stored about 2 months at 4 C)
[21] = molecular target: tissue factor (TF) antigen (UniProt P13726); experiment: SPR, ProteOn XPR36; His-tagged Fab captured on anti-penta-His, TF injected; 1:1 fit; estimated (*) from the Fab that differs only in the L chain tag
[22] = molecular target: tissue factor (TF) antigen (UniProt P13726); experiment: SPR, ProteOn XPR36; His-tagged Fab captured on anti-penta-His, TF injected; 1:1 fit
[23] = molecular target: tissue factor (TF) antigen (UniProt P13726); experiment: SPR as for KD; reference: wild-type D3H44 Fab; estimated (*) from the Fab that differs only in the L chain tag
[24] = molecular target: tissue factor (TF) antigen (UniProt P13726); experiment: SPR as for KD; reference: wild-type D3H44 Fab

Substance: D3H44 H1L1 Fab heterodimer, H1 L124E_L143E_K145T, L1 Q124K_V133G_S176R_T178K
- Change in median KD of h1l1 Fab heterodimer compared to wild type (-(log(KD design)-log(KD wt))) (log(KD) difference) [1]: -0.12
- Change in median KD of h1l1 Fab heterodimer compared to wild type (-(log(KD design)-log(KD wt))) (log(KD) difference) [2]: -0.12
- Kd [3]: 210 pM

Substance: D3H44 Fab heavy chain A139G_F174V_V190A (Kabat), C-terminal ABD2-His6 tag
- H1L1:H1L2 normalized median ratio [4]: 51 of 100
- H1L1:H1L2 normalized median scalar value ln(r1/f1) [4]: 0.03
- H1L1:H1L2 normalized median ratio [5]: 40 of 100
- H1L1:H1L2 normalized median ratio [6]: 60 of 100
- H1L1:H1L2 normalized median scalar value ln(r1/f1) [6]: 0.42
- H1L1:H1L2 normalized median ratio [7]: 49 of 100

Substance: D3H44 Fab heavy chain L143E_K145T (Kabat), C-terminal ABD2-His6 tag
- H1L1:H1L2 normalized median ratio [8]: 59 of 100
- H1L1:H1L2 normalized median scalar value ln(r1/f1) [8]: 0.36
- H1L1:H1L2 normalized median ratio [9]: 41 of 100
- H1L1:H1L2 normalized median ratio [10]: 28 of 100
- H1L1:H1L2 normalized median ratio [11]: 41 of 100
- H1L1:H1L2 normalized median ratio [12]: 59 of 100
- H1L1:H1L2 normalized median scalar value ln(r1/f1) [12]: 0.38
- H1L1:H1L2 normalized median ratio [13]: 72 of 100
- H1L1:H1L2 normalized median scalar value ln(r1/f1) [13]: 0.96

Substance: H1L1 Fab heterodimer of LCCA set 9585 (D3H44 Fab; H: L143E_K145T; L: Q124R)
- Kd [14]: 280 pM
- change in KD vs wild type, -(log(KD design)-log(KD wt)) [14]: -0.25

More lines, now with the values ahead:

- median LCCA performance normalized to a L1:L2 DNA ratio of 1:1 (ratio H1-L1:H1-L2), H1-L2 share (ratio part of 100) [15]: 26
- median LCCA performance normalized to a L1:L2 DNA ratio of 1:1 (ratio H1-L1:H1-L2), H1-L2 share (ratio part of 100) [16]: 18
Substance: D3H44 light chain Q124K_V133G_Q160K_S176R

- Change in median values of KD of h1l1 Fab heterodimer compared to wild type (-(log(KD design)-log(KD wt))) [17]: 0.17
- Kd [18]: 110 pM
- Change in median values of KD of h1l1 Fab heterodimer compared to wild type (-(log(KD design)-log(KD wt))) [19]: 0.17
- Kd [20]: 110 pM
Substance: D3H44 Fab heterodimer H1 L143E_K145T_Q179D / L1 T178R

- Kd [21]: 210 pM
- Kd [22]: 210 pM
- change in median KD compared to wild type, -(log(KD design)-log(KD wt)) [23]: -0.12
- change in median KD compared to wild type, -(log(KD design)-log(KD wt)) [24]: -0.12
Substance: D3H44 Fab heterodimer, H1L1 of LCCA Sets # 9705, 9706, 9704 and 9703 (H1 L143E_K145T_S188L; L1 Q124R)
